Test results published in patent US10556936B2, “Immunogenic proteins and fragments thereof from allergenic mites” (ALK-ABELLÓ A/S, priority 2016, dated 2020).
Marks after values point to notes of the source that are not given here.

How the values were obtained:
[1] = test system: basophils in whole blood from HDM allergic donors; assay: Basophil Activation Test (BAT); format: cell-based, human; conditions: responding donors of tested HDM allergic donors; whole blood stimulated 1 h
In short: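 Whole blood from HDM-allergic donors (n=14) was stimulated for 1 h with test proteins across a concentration range, e.g. 1, 10, 100 or 1000 ng/ml. Basophil surface activation markers were measured by flow cytometry, with Der p 1 and Der p 2 tested at the same concentrations as controls.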

[2] = test system: HDM specific T-cell lines from HDM allergic donors; assay: T cell reactivity of protein: IL-5/IFNg FluoroSPOT or 72 h T cell proliferation in HDM specific T-cell lines (Example 2); format: cell-based, human; conditions: responding donors of tested HDM allergic donors
Excerpt: PBMCs from European HDM-allergic individuals were recruited in the Copenhagen region (defined by clinical history of allergy to house dust mite and specific IgE to group 1 and group 2 major allergens from Der p and/or Der f and with measured specific IgE (CAP) >0.7 kU/L towards Der p/f 1 or Der p/f 2. In addition, PBMCs from 10 US HDM-allergic individuals were recruited in San Diego (defined by Der p extract IgE titers greater than 0.35 kUA/L). PBMCs were isolated from whole blood by density gradient centrifugation according to manufacturers' instructions (Ficoll-Hypaque, Amersham Biosciences, Uppsala, Sweden). Der p- and Der f-specific extract IgE titers were determined using the ImmunoCAP system (Thermo Fisher, Uppsala, Sweden). In a separate series of experiments, pooled plasma from 10 European and 10 American HDM atopic individuals from the San Diego region, respectively, was utilized to run 2D immunoblots to elucidate IgE and IgG reactivity towards the proteins, which had at least one peptide with positive T cell response.
T cells reactivity was determined by establishment of HDM specific T-cell lines according to standard methods. In short, PMBCs from HDM allergic donors were cultured for 2-3 weeks in the presence of house dust mite allergen extract. The responses to proteins having SEQ ID NOs 1-44 were assessed by IL-5/IFNg FluoroSPOT (Mabtech FS-0108-10) according manufacturer protocol, (after 2 weeks) or proliferation in a standard 72 h T cell proliferation assay, as described in Henmar H et al., Clin Exp Immunol 2008; 153(3):316-23. (after 3 weeks). In addition these established T cell lines were used for further characterization and epitope mapping.

B1: 31 (protein, listed as Dermatophagoides pteronyssinus)
chain: MAKFNYLPVDVQEELRNTANAIVSVGKGILAADESTGTIGKRFADINVENVEQNRQAYRQLLFYSEGIEQYISGVILFDETVYQKDDKGVPFPELLKKKGIIPGIKVDTGVVTLQGTNGESTTQGLDNLTKRCQEYYNQGCRFAKWRCVLKIGQDEPSSLAIVENANVLARYASCCQQARIVPIVEPEILPDGDHNLERCQKVTETVLAAVYKALNDHHVYLEGTLLKPNMVTPGQSCPQKASPQEVAQATVTALQRTVPAAVPGIVFLSGGQSEEEASVNLNAINQYQGKKPWALSFSYGRALQASALRAWQGKPENIGAGQKELLQRAKANVLAHKGQYVAGSIPSLASAKSNFVAQHKY
[1]
  % responding donors in BAT Assay: 0 of 8
[2]
  % T cell responding donors to protein: 6 of 27

B2: 29 (protein, listed as Dermatophagoides pteronyssinus)
chain: MVKIGINGFGRIGRLVLRAAIKKGVEVAAINDPFLDVKYMVYMFKFDSTHGRYQGEVKEEGGLLVVDGQKIQVFQERNPAEIPWGKVGADYVVESTGVFTTIEKAKAHLAGGAKKVIISAPSADAPMYVMGVNHDKYDPKQQIISNASCTTNCLAPLAKVINDKFGIENGLMTTVHAITATQKTVDGPSGKLWRDGRGAGQNIIPASTGAAKAVGKVIPELNGKLTGMALRVPVPDVSVVDLTVTLKNPASYDEIKAAVKAAAESDHWKGILEYTDEEVVSSDFISDTHSSIFDAKAGIALTPTFVKLIAWYDNEFGYSNRVVDLIKYVASK
[1]
  % responding donors in BAT Assay: 1 of 8*
[2]
  % T cell responding donors to protein: 2 of 27

B3: 25 (protein, listed as Dermatophagoides pteronyssinus)
chain: MSSSSGKKYDFSGKVALVTGSSSGIGAAIALQFAQYGAQVTITGRDAAALESVAKRIEAESGHQPLQIVGNLLDQSLPAKLIDGTISKYGRLDFLVNNAGFSTQHRDIHDEKLMEAFDQVYGLNVRAVVQLSQLAATHLEKSKGNIINISSNLSMMPVHIIYSSSKAALDMITKTMAMEFGKKGVRVNSINPGPVATQFMRSLGMPVTFLKENEEFVKELTLLKFVAQPVEIANLASFLASDDARNMTGSIVVNDTGSLLAPRVDFKKLDEIKKK
[1]
  % responding donors in BAT Assay: 1 of 8*
[2]
  % T cell responding donors to protein: 3 of 26

B4: 6 (protein, listed as Dermatophagoides pteronyssinus)
chain: MVKAVVVLKGDPNVSGTIFFEQQDNGPVKVTGSVQGLKPGLHGFHVHEFGDNTNGCTSAGAHYNPLNKTHGAPNDEERHVGDLGNIEANDKGVANVVIEDSLISLTGEKSIVGRSLVVHADPDDLGRGGHELSKTTGNAGGRLVCGVIGVTK
[1]
  % responding donors in BAT Assay: 1 of 8*
[2]
  % T cell responding donors to protein: 0 of 27

B5: 13 (protein, listed as Dermatophagoides farinae)
chain: KKTKDCDVEKPIRECLKNGLLRYSDGQKINQFPDSIEDLNRACEELKKSETCARNFIDTCTETSYEKRSLDSLLDGIQRVLKRLCRSQSKKEQLLQNVGCANSVVQDTKLCLKNYRMLVFAANKLNDKSKIMRILCCKSRKVAPCIGEAMKSKGNAVCSAKNIDYFREMHQNIKAEMTAVVCSDFERDQCENVEVPAITEAEYKDQNIFNPLRDLYKKVILA
[1]
  % responding donors in BAT Assay: 0 of 16
[2]
  % T cell responding donors to protein: 6 of 29

B6: 38 (protein, listed as Dermatophagoides farinae)
chain: QSRDRNDKPYRIVCYWGTWAFYRPASGKFQAENVNPNLCTHIMYGFAKLQNNKIALYDPDLDDGDEDWNSGLQWGHGMIRRMVNLRTYNPHLTTMISLGGWNEGSDKYSIMVRDPASRKIFIQSVLHLLAEFDLDGLDFDWEYPAMQASGDSDRKPGRAEDKEDFVTLLRELHEAFQPHGYVLSSAVSAGKPTIDRAYNIPEVSKYLDFINLMSYDYHGGWESHTGHNAPLNSYKNANELDKEFTVTYSVEYWLNHGVDPKKLVLGIPLYGRTFTLAGSEHGIGAPTIGKGGESGTITRTIGMLGYNEICTMIKQGWQLYRDEIERIPYAVHANQWIGYDDRESVNEKLNLLMAKHLGGAMVWSIDTDDFVGNCVGVKYPLLRSISKKLNNVDGPDPDIKRYHYHTSTAKPHTDGTTSTHHDHKTTTTKHHKTTQPHHKTTQPHHTQTITTTTERPHGKFQCHQAGFFADPENPRKFHQCVDFGGHLKDYEFMCGEGTHYDEKLHICVR
[1]
  % responding donors in BAT Assay: 0 of 8
[2]
  % T cell responding donors to protein: 11 of 27

B7: 3 (protein, listed as Dermatophagoides pteronyssinus)
chain: MAIDGKYQMESSEHFEEFVKEMGLDVDMTNVDLSKTSTMEICKDGDVYHIKSETAGIAHEIKFKVGEEFEDDMNGHKFKNVVTMECDNKMVQKKTSADGGKVVNVVREFTDAGCTVKSTYNTVTWTRVYKRM
[1]
  % responding donors in BAT Assay: 0 of 16
[2]
  % T cell responding donors to protein: 1 of 29

B8: 40 (protein, listed as Dermatophagoides pteronyssinus)
chain: KSAPEGCFRAAVLDHVHQTDARHLSNTAKIIDLNFKVYEDAAALAKKQGADIIVFPENGLIYSILSREKADEFASDIPDAEVNACTLDSKFVYNRLACLAQKHQMFVVADLIDRKSCEELGINNVSDSCPADKKFLFNTAVLFDRQGKLLGRYHKMHLFGEISMNPPPKPELLVIDTELGRLGMQICFDMIFKTPGYLLAQENKFDTMLFPTWWFDESPMLSSSQYQMAWAFGNNVTLLASNIHRIEVGSRGSGIYVGPHRTLAAALYDDSVERLVLANVPIKPKETDQSACPLDSEIIEVPQQIPIPKSVKYHHQNLNLKDVTLLQLSSNESEVHLCHKGVCCQFEYRLAMKDQPQESWVDRVPLLANMLHYLTPEERYYLLIANRTRPGAYPWSEEFCAVVVCPSSRWNFGKMQKDCSKIGSNQELSSRFVHAKLRGKFSEDTAVYPSAVGSKNQLIYPENKWKFWKVNVPNEPEYFIELGAKDNSESRAMELGALVLYGRNYNRDPRYEQKALPIN
[1]
  % responding donors in BAT Assay: 0 of 8
[2]
  % T cell responding donors to protein: 15 of 27

B9: 33 (protein, listed as Dermatophagoides pteronyssinus)
chain: IEQVHIALGSNETEIIVTWTEPHKHDDKTSDAVVYYGQAKSSFDQKVKAISEYFKDDKTKYTTYRALLTGLLPGTEYHYRIQMDDLESSIFEFKTLKTGEENWLPRFAIYGDLGYVNEQSLPYLKKDVEQNLFDVIFHIGDFAYDLNDEHGKVGHHFMRSIEPVASKVAYMTCPGNHERHDNFSHYDSRFSMIGDRSQPIHSDKLNKRLNNHFHSMTIGPATIILFSTEYYYYTKYGWQQIEHQYRWLEQELKRANENRQKHPWIIVMGHRPLYCLKMGDDSCDHQTMERKEIRQGIRMHDEGERQYGLEDLFFKYGVDIQFYGHEHFYARLFPIYKYKMYNGTKSKNPYDHPGAPIHITTGSAGNKELHPEFNHLNDWVAEHFYDYGYTRLMFEDKYRIRLQQISDDQHGKVLDEIEIVKSSPQPHWMNVEHH
[1]
  % responding donors in BAT Assay: 1 of 8*
[2]
  % T cell responding donors to protein: 10 of 27

B10: 37 (protein, listed as Dermatophagoides pteronyssinus)
chain: DTPANCTYEDIKGLWLFEETEPIKDRWEKCPEHQQQREKYSKKIFIRLDFPNVAVDKFGNIGEWTMIYNQGFEVKINYRKYFAFSAYERKSENNVLSYCHKTQPGWSHDVLGNNWACYVGHKVNNWNDDDVSKTTTVGAEKFPVKQHSERELYLQNINVEHILSQKHIDHLNSQQKSWKAIVYPDLQSKSIEHLIQMAGGRKSRIINRPKPLRATEQQKQLARSLPESFDWRNLNGIDYVSPVRDQGKCGSCYTFASMAMLESRIRIQTNNTFKPIFSTQEVVDCSEYSQGCDGGFSYLIAGKYAQDFGVIDESCYPYKGVTGKCQNQQNFNQTNEKCKQRTYTIDYKYVGGYFGACNEEAMQIELVQNGPIAVGFEVYGDFFGYSEGIYSHQPSNESNDQHQQIKAEFNPFEMTNHAVLIVGYGKDKKTGEKYWIVKNSWGKQWGMDGYFWMRRGTDECAIESLAMAATPIPN
[1]
  % responding donors in BAT Assay: 0 of 8
[2]
  % T cell responding donors to protein: 4 of 27
